Data taken from patent US20220363757A1.

B1: Fab fragment of antibody 15011 (Fab, not shown: a dimerising Fc or GST)
heavy: EVQLLESGGGLVQPGGSLRLSCAASGFDFRSYAMMWVRQAPGKGLEWVGGINGEVGGSNTYYAPAVKGRATISRDNSKNTLYLQMNSLRAEDTAVYYCVKGAGACGICNDDIDAWGQGTLVTVSS
light: SYELTQDPAVSVALGQTVRITCSGAGSYAGSYYYGWHQQKPGQAPVTVIYDNDKRPSNIPDRFSGSSSGNTASLTITGAQAEDEADYYCGSTNDNDDGGLFGSGTKVTVLGQPKANPTVTLFPPSSEELQANKATLVCLISDFYPGAVTVAWKADGSPVKAGVETTKPSKQSNNKYAASSYLSLTPEQWKSHRSYSCQVTHEGSTVEKTVAPTECS
B2: Fab fragment of antibody 15532 (Fab, not shown: a dimerising Fc or GST)
heavy: QVQLQQWGAGLLRPSETLSLTCAVYGESFSGYYWNWIRQPPGKGLEWIGEINHSGSTNYNPSLKSRVTISVDTSKTQFSLKLSSVTAADTAVYYCARGWDLLDWNDYWNEYWGQGTLVTVSS
light: not shown
B3: Fab fragment of antibody 15431 (Fab, not shown: a dimerising Fc or GST)
heavy: QVQLQQSGPGLVKPSQTLSLTCAISGDSVSSNSAAWNWIRQSPSRGLEWLGRTYYRSKWYNDYAVSVKSRITINPDTSKNQFSLQLNSVTPEDTAVYYCARDDDWNDFDYWGQGTLVTVSS
light: not shown

Target: cynomolgus LAG-3 ECD human IgG1 Fc fusion (cynomolgus; human), P18627
Sequence (P18627 other isoform, or with tags, fused parts or gaps, form in doubt): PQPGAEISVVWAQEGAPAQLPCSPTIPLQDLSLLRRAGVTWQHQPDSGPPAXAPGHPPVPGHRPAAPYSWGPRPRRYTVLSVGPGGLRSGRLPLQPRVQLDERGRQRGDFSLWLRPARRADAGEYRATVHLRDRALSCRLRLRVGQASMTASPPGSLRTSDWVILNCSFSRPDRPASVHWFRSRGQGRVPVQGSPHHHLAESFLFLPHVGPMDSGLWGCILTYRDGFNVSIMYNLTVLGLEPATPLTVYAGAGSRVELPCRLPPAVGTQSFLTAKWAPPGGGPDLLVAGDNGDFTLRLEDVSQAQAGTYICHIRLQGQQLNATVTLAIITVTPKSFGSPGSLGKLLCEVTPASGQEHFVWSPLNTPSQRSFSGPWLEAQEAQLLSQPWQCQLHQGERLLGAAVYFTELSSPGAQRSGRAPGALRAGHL
Assay: SPR, Fab over captured LAG-3 ECD-Fc

**Q.** B1 was tested. Which Kd did it give?
**A.** The Kd was 35 nM.

**Q.** And the koff?
**A.** The koff was 0.0025 s⁻¹.

**Q.** And the kon?
**A.** The kon was 70000 M⁻¹ s⁻¹.

**Q.** How did the Kd turn out when B2 was run?
**A.** The Kd was 68 nM.

**Q.** What about the koff of the same binder?
**A.** The koff was 0.0048 s⁻¹.

**Q.** What about the kon of the same binder?
**A.** The kon was 71000 M⁻¹ s⁻¹.

**Q.** With B3 as the binder, how does the Kd read?
**A.** The Kd was 120 nM.

**Q.** What about the koff of the same binder?
**A.** Its koff is 0.0068 s⁻¹.

**Q.** What about the kon of the same binder?
**A.** The kon was 59000 M⁻¹ s⁻¹.
